In assay [1] the target is T1, recombinant glycosylated IFN-β (Pharmapark, Moscow, Russia) (Homo sapiens, UniProt P01574, glycosylated).
T1 construct: human interferon beta, glycosylated form (IFN-β-1a); also called IFN-β-1a; IFNβ-1a; source: bought: Pharmapark
As to the kind of experiment: ELISA; Kd by the method of Friguet with the Klotz equation; murine antibody and IFN-β in solution at equilibrium, free antibody measured by ELISA. In general terms: An ELISA detects its analyte on a solid surface through an enzyme-linked reagent.

A further assay deals with T2, E. coli-HuIFN-γ (Homo sapiens, UniProt P01579).
T2 construct: human interferon gamma expressed in E. coli; source: expressed in E. coli
T2 sequence (P01579 24-161): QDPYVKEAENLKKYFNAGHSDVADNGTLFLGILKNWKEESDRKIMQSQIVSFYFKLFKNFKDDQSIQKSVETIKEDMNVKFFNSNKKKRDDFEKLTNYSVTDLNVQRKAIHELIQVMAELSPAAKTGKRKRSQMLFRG
Put plainly: ELISA; indirect ELISA of the hybridoma panel; antigens adsorbed overnight at 4 °C in PBS pH 7.2 at 2 μg/mL, 50 μL/well; anti-mouse immunoglobulin-HRP, OD450.

One molecule from article PMC8699518 (Biomolecules, 2021) can be followed below.

A word on the Kd: it is the equilibrium constant for the complex coming apart.

T1 sequence (P01574 22-187): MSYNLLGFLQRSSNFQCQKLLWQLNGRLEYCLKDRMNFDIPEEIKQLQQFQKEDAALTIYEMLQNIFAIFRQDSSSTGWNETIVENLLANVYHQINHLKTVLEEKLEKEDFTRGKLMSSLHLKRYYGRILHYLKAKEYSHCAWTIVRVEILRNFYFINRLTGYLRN

B1: murine monoclonal antibody B16 against IFN-β (antibody, V domains shown)
VH: EVKLVESGGGLVQPGGSLKLSCAASGFTFTSYTMSWVRQTPEKRLEWVAYISNGGGSTYYPDTVKGRFTISRDNAKNTLYLQMSSLKSEDTAMYYCARLDWVFAYWGQGTLVTVSA
VL: DIVMTQSHKFMSTSVGDRVSITCKASQDVGTAVAWYQQKPGQSPKLLIYWASTRHTGVPDRFTGSGSGTDFTLTISNVQSEDLADYFCLQYSSFPYTFGGGTKLEIK
notes: VH of murine B16; mouse IgG heavy-chain constant region; VL of murine B16; mouse kappa light-chain constant domain (all L-chains of the panel were of the kappa isotype); Member of the hybridoma panel B1-B21; also called murB16; prototype mouse antibody; source: hybridoma B16
Consider B1, for which the Kd in assay [1] amounted to 3.8 nM. Also, in the assay with E. coli-HuIFN-γ, the binding result is reported as “no binding”.
